Literature values as cited in patent publication US9994615B2, “Self-regulated peptide hydrogel for insulin delivery” (Massachusetts Institute of Technology, priority 2012, dated 2018).

What was measured:
[1] = after subcutaneous injection

Compound	pKa	Time basal level of insulin is maintained [1]
OB(O)c1ccccc1 [phenylboronic acid]	approximately 8.9	
glargine		up to 24 hours
insulin detemir		up to 20 hours
